One block for each binder: values may come before it.
Columns and labels:
[1] = molecular target: acetylcholine receptor; test: SPR, receptor immobilized, peptide 10 uM
[2] = molecular target: acetylcholine receptor; test: SPR, AchR immobilised on CM5 chip, peptide 10 uM

B3: 6mer-1-948 (peptide)
peptide: RKFTVR
- Binding affinity (RU) [2]: 24 RU

B4: 5mer-1054 (peptide)
peptide: RNKVR
- Binding affinity (RU) [1]: 21 RU

B6: 5mer-760 (peptide)
peptide: RIWAR
- Binding affinity (RU) [1]: 19 RU

B7: 5mer-773 (peptide)
peptide: RPNMR
- Binding affinity (RU) [1]: 25 RU

B10: 5mer-1060 (peptide)
peptide: KTHIK
- Binding affinity (RU) [1]: 29 RU

B11: 5mer-753 (peptide)
peptide: RKTPK
- Binding affinity (RU) [1]: 30 RU

B13: 6mer-1-940 (peptide)
peptide: RKPEDR
- Binding affinity (RU) [2]: 29 RU

B16: 6mer-1-947 (peptide)
peptide: KRTKGR
- Binding affinity (RU) [2]: 31 RU

B17: 6mer-2-896 (peptide)
peptide: RTCARR
- Binding affinity (RU) [1]: 30 RU

B20: 5mer-772 (peptide)
peptide: KYWFK
- Binding affinity (RU) [1]: 11 RU

B23: 6mer-1-946 (peptide)
peptide: RRCEPR
- Binding affinity (RU) [2]: 31 RU

B24: 5mer-1063 (peptide)
peptide: RPHVK
- Binding affinity (RU) [1]: 20 RU

B26: 5mer-1072 (peptide)
peptide: KDWPK
- Binding affinity (RU) [1]: 32 RU

B28: 5mer-757 (peptide)
peptide: KYCMR
- Binding affinity (RU) [1]: 17 RU

B29: 5mer-1074 (peptide)
peptide: RPCPR
- Binding affinity (RU) [1]: 17 RU

B30: 5mer-758 (peptide)
peptide: KCDFK
- Binding affinity (RU) [1]: 30 RU

B32: 5mer-768 (peptide)
peptide: RDSWR
- Binding affinity (RU) [1]: 11 RU

B33: 6mer-1-943 (peptide)
peptide: KKEHDK
- Binding affinity (RU) [2]: 43 RU

B34: 6mer-1-944 (peptide)
peptide: RKPAGK
- Binding affinity (RU) [2]: 25 RU

B35: 6mer-2-894 (peptide)
peptide: RFHWRR
- Binding affinity (RU) [1]: 22 RU

B36: 5mer-762 (peptide)
peptide: KMPER
- Binding affinity (RU) [1]: 21 RU

B39: 5mer-1071 (peptide)
peptide: RYEGR
- Binding affinity (RU) [1]: 16 RU

B40: 5mer-763 (peptide)
peptide: RCHVR
- Binding affinity (RU) [1]: 30 RU

B41: 5mer-754 (peptide)
peptide: RKNER
- Binding affinity (RU) [1]: 29 RU

B43: 6mer-2-890 (peptide)
peptide: RDNPKR
- Binding affinity (RU) [1]: 30 RU

B49: 5mer-769 (peptide)
peptide: KTEWK
- Binding affinity (RU) [1]: 32 RU

B54: 6mer-1-933 (peptide)
peptide: RRPWNR
- Binding affinity (RU) [2]: 28 RU

B59: 5mer-1068 (peptide)
peptide: RMHKK
- Binding affinity (RU) [1]: 11 RU

B60: 6mer-1-942 (peptide)
peptide: RRMMVR
- Binding affinity (RU) [2]: 37 RU

B61: 6mer-2-897 (peptide)
peptide: RPAHKK
- Binding affinity (RU) [1]: 17 RU

B62: 6mer-2-895 (peptide)
peptide: KYMAKK
- Binding affinity (RU) [1]: 28 RU

B64: 5mer-775 (peptide)
peptide: RHTVK
- Binding affinity (RU) [1]: 23 RU

B69: 5mer-1057 (peptide)
peptide: RFDPK
- Binding affinity (RU) [1]: 13 RU

B71: 5mer-752 (peptide)
peptide: KAWVK
- Binding affinity (RU) [1]: 26 RU

B72: 5mer-765 (peptide)
peptide: RNEFR
- Binding affinity (RU) [1]: 12 RU

B74: 6mer-2-891 (peptide)
peptide: RTSIRK
- Binding affinity (RU) [1]: 28 RU

B77: 5mer-1049 (peptide)
peptide: KPPGR
- Binding affinity (RU) [1]: 29 RU

B78: 5mer-1058 (peptide)
peptide: KIPWR
- Binding affinity (RU) [1]: 25 RU

Next, values leading:

- Binding affinity (RU) [1]: 17 RU
B1: 6mer-2-893 (peptide)
peptide: REHVRR

- Binding affinity (RU) [1]: 25 RU
B2: 5mer-774 (peptide)
peptide: RTCDR

- Binding affinity (RU) [1]: 26 RU
B5: 5mer-1070 (peptide)
peptide: RETGK

- Binding affinity (RU) [1]: 31 RU
B8: 5mer-1050 (peptide)
peptide: KPEDR

- Binding affinity (RU) [1]: 31 RU
B9: 5mer-761 (peptide)
peptide: RMPWR

- Binding affinity (RU) [1]: 23 RU
B12: 5mer-1067 (peptide)
peptide: KHENK

- Binding affinity (RU) [2]: 28 RU
B14: 6mer-1-938 (peptide)
peptide: KKIAWK

- Binding affinity (RU) [1]: 30 RU
B15: 5mer-766 (peptide)
peptide: RNMEK

- Binding affinity (RU) [1]: 18 RU
B18: 5mer-1065 (peptide)
peptide: KNPIR

- Binding affinity (RU) [1]: 20 RU
B19: 5mer-1064 (peptide)
peptide: KCMKR

- Binding affinity (RU) [1]: 29 RU
B21: 5mer-1059 (peptide)
peptide: RMAGR

- Binding affinity (RU) [1]: 24 RU
B22: 5mer-1061 (peptide)
peptide: KDSFR

- Binding affinity (RU) [2]: 38 RU
B25: 6mer-1-932 (peptide)
peptide: KRFEFK

- Binding affinity (RU) [2]: 34 RU
B27: 6mer-1-937 (peptide)
peptide: RKPTNR

- Binding affinity (RU) [1]: 12 RU
B31: 5mer-767 (peptide)
peptide: RFHFK

- Binding affinity (RU) [1]: 24 RU
B37: 5mer-1062 (peptide)
peptide: RAPWR

- Binding affinity (RU) [1]: 27 RU
B38: 6mer-2-892 (peptide)
peptide: KDENRK

- Binding affinity (RU) [1]: 16 RU
B42: 6mer-2-898 (peptide)
peptide: KKKDKK

- Binding affinity (RU) [1]: 28 RU
B44: 5mer-1051 (peptide)
peptide: RYAHR

- Binding affinity (RU) [1]: 31 RU
B45: 5mer-1069 (peptide)
peptide: RPSFK

- Binding affinity (RU) [1]: 11 RU
B46: 5mer-1056 (peptide)
peptide: RCTPK

- Binding affinity (RU) [2]: 36 RU
B47: 6mer-1-936 (peptide)
peptide: RKETDR

- Binding affinity (RU) [1]: 17 RU
B48: 5mer-759 (peptide)
peptide: KHKMR

- Binding affinity (RU) [1]: 27 RU
B50: 5mer-1053 (peptide)
peptide: KHEHK

- Binding affinity (RU) [2]: 31 RU
B51: 6mer-1-945 (peptide)
peptide: RKTSIK

- Binding affinity (RU) [1]: 13 RU
B52: 5mer-750 (peptide)
peptide: KEADK

- Binding affinity (RU) [2]: 39 RU
B53: 6mer-1-934 (peptide)
peptide: KRPPGK

- Binding affinity (RU) [1]: 17 RU
B55: 5mer-1052 (peptide)
peptide: RNDWR

- Binding affinity (RU) [2]: 40 RU
B56: 6mer-1-935 (peptide)
peptide: RKKDIK

- Binding affinity (RU) [1]: 11 RU
B57: 5mer-770 (peptide)
peptide: KKPFR

- Binding affinity (RU) [1]: 20 RU
B58: 5mer-751 (peptide)
peptide: RYMMR

- Binding affinity (RU) [1]: 25 RU
B63: 5mer-1066 (peptide)
peptide: RFWVK

- Binding affinity (RU) [1]: 19 RU
B65: 5mer-764 (peptide)
peptide: KTWPK

- Binding affinity (RU) [1]: 24 RU
B66: 5mer-749 (peptide)
peptide: KHTWR

- Binding affinity (RU) [1]: 15 RU
B67: 5mer-755 (peptide)
peptide: KNWDR

- Binding affinity (RU) [1]: 15 RU
B68: 5mer-1055 (peptide)
peptide: KHHEK

- Binding affinity (RU) [1]: 29 RU
B70: 5mer-1073 (peptide)
peptide: RDEAK

- Binding affinity (RU) [1]: 18 RU
B73: 5mer-756 (peptide)
peptide: RCDWR

- Binding affinity (RU) [2]: 29 RU
B75: 6mer-1-941 (peptide)
peptide: RKTPKK

- Binding affinity (RU) [2]: 41 RU
B76: 6mer-1-939 (peptide)
peptide: KRNDFK

- Binding affinity (RU) [1]: 24 RU
B79: 5mer-771 (peptide)
peptide: RKWVK
